In general, Kd refers to the free concentration of one partner at which half of the binding sites on the other are occupied at equilibrium, for simple one-to-one binding. Lower therefore signals tighter binding.

Experiment [1] has as its target hDPEP1-Avi (human DPEP1 residues 17-385) (human) (UniProt P16444). In words: BLI. For orientation: In BLI a coated tip is dipped into the sample, and binding shifts an interference pattern.
Experiment [2] concerns the target biotinylated pDPEP1-Avi (pig DPEP1 residues 17-385) (pig (Sus scrofa)) (UniProt P22412). In words: BLI.
Sequence of UniProt P22412 (P22412 17-385): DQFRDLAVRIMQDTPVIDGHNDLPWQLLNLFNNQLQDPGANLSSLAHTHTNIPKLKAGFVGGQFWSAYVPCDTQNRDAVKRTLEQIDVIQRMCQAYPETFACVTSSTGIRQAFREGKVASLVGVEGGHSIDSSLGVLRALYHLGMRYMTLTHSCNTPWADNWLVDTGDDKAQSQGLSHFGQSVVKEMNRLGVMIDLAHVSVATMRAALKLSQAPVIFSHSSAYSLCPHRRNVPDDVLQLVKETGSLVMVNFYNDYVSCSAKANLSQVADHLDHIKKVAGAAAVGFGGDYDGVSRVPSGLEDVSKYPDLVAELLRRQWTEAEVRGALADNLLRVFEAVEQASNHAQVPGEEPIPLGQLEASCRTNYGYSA

Sequence of UniProt P16444 (P16444 17-385): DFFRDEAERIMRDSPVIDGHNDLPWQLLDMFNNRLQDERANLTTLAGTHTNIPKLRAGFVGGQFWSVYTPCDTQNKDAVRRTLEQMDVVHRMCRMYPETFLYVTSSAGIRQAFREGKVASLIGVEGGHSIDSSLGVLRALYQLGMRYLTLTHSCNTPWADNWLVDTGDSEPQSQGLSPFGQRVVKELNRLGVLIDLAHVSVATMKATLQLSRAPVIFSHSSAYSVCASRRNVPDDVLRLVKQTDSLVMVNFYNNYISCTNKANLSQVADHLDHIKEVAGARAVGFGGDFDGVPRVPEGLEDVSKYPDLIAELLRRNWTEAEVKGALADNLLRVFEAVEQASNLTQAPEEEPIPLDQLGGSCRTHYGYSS

On to “PHEV spike RBD (residues 327-605), from Expi293F cells (domain or fragment)”, for which the Kd in experiment [1] stood at 2990 nM; in experiment [2], 1500 nM.

These data come from PMC12578638.
